Source: US20150011431A1 (Scripps Research, published 2015)

T1: CXCR1 (UniProt P25024 1-350, limits assumed)
T1 construct: whole, on cells; DiscoveRx cells engineered with a luminescent reporter enzyme for beta-arrestin recruitment; also called CXCR1-U2OS; U2OS-CXCR1
T1 sequence (looked up): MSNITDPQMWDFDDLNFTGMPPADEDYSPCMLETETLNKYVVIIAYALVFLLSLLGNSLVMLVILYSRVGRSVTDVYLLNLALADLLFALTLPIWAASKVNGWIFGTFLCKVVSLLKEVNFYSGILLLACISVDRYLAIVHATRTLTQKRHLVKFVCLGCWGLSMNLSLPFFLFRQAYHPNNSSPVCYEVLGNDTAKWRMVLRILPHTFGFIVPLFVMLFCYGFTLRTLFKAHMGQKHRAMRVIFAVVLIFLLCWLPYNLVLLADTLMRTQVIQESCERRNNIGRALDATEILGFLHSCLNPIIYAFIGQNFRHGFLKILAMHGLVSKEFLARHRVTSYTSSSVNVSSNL


Target: T1, CXCR1
Test: flow cytometry with 2 ug/ml heparin sulfate, IgG normalized to 10 nM; CXCR1-U2OS against parental U2OS cells
Method: Cell culture supernatants were then tested for binding to cells by flow cytometry. The adherent U2OS or CXCR1-U2OS cells were dissociated with Accutase (Innovative Cell Technologies, Inc., San Diego, Calif.), neutralized with an equal volume of media containing 10% serum, centrifuged at 1000 g, and resuspended in PBS with 2% BSA. Next, cells were dispensed into microtiter plates to achieve between 30,000 to 300,000 cells per well, centrifuged again, and resuspended in cell culture supernatant containing expressed IgG, or a dilution of IgG-containing cell culture supernatant. A fluorescent-conjugated anti-Human Fc antibody was used to detect binding of the expressed antibody to cells.
In an exemplary method, variants of V1-51 were made by overlap PCR and subcloned into pFuse vector for expression as described in Example 4. […] These V1-51 variants were paired with heavy chains encoding VH4-34+CDR3-IL8 (SEQ ID NO: 430), VH4-34+CDR3-IL8_CDR1 Cow (SEQ ID NO: 432), VH4-34+CDR3-IL8_CDR2 Cow (SEQ ID NO: 433), or VH4-34+CDR3-IL8_CDR1 Cow CDR2 Cow, (SEQ ID NO: 436). Transfections and ELISA were carried out as described above, and flow cytometry was used to evaluate CXCR1 binding specificity as previously described, with the modification that cells were resuspended in 2% BSA in PBS plus 2 ug/ml Heparin sulfate, and IgGs were normalized to 10 nM during incubation on cells.

Binder | CXCR1 specificity
IgG with VH4-34+CDR3-IL8_CDR1 Cow and light chain V1-51 S2A, T5N, P8S, A12G, A13S, P14L & DNN to GDT (antibody, IgG, human IgG1 CH1-CH2-CH3; normalized to 10 nM; also called VH4-34 CDR3-IL8 CDR1-Cow / V1-51 S2A, T5N, P8S, A12G, A13S, P14L & DNN to GDT) heavy: not shown light: QAVLNQPSSVSGSLGQKVTISCSGSSSNIGNNYVSWYQQLPGTAPKLLIYGDTKRPSGIPDRFSGSKSGTSATLGITGLQTGDEADYYCASAEDSSSNAVFGSGTTLTVLGQPKAAPSVTLFPPSSEELQANKATLVCLISDFYPGAVTVAWKADSSPVKAGVETTTPSKQSNNKYAASSYLSLTPEQWKSHRSYSCQVTHEGSTVEKTVAPTECS | 6.8
IgG with VH4-34+CDR3-IL8_CDR1 Cow CDR2 Cow and light chain V1-51 CDR1 I29V, N32G (antibody, IgG, human IgG1 CH1-CH2-CH3; normalized to 10 nM; also called VH4-34 CDR3-IL8 CDR1-Cow & CDR2-Cow / V1-51 CDR1 I29V, N32G) heavy: not shown light: QSVLTQPPSVSAAPGQKVTISCSGSSSNVGNGYVSWYQQLPGTAPKLLIYDNNKRPSGIPDRFSGSKSGTSATLGITGLQTGDEADYYCASAEDSSSNAVFGSGTTLTVLGQPKAAPSVTLFPPSSEELQANKATLVCLISDFYPGAVTVAWKADSSPVKAGVETTTPSKQSNNKYAASSYLSLTPEQWKSHRSYSCQVTHEGSTVEKTVAPTECS | 11.8
IgG with VH4-34+CDR3-IL8_CDR1 Cow CDR2 Cow and light chain V1-51 S2A, T5N, P8S, A12G, A13S, P14L (antibody, IgG, human IgG1 CH1-CH2-CH3; normalized to 10 nM; also called VH4-34 CDR3-IL8 CDR1-Cow & CDR2-Cow / V1-51 S2A, T5N, P8S, A12G, A13S, P14L) heavy: not shown light: QAVLNQPSSVSGSLGQKVTISCSGSSSNIGNNYVSWYQQLPGTAPKLLIYDNNKRPSGIPDRFSGSKSGTSATLGITGLQTGDEADYYCASAEDSSSNAVFGSGTTLTVLGQPKAAPSVTLFPPSSEELQANKATLVCLISDFYPGAVTVAWKADSSPVKAGVETTTPSKQSNNKYAASSYLSLTPEQWKSHRSYSCQVTHEGSTVEKTVAPTECS | 12.2
IgG with VH4-34+CDR3-IL8_CDR1 Cow and light chain V1-51 CDR1 I29V, N32G (antibody, IgG, human IgG1 CH1-CH2-CH3; normalized to 10 nM; also called VH4-34 CDR3-IL8 CDR1-Cow / V1-51 CDR1 I29V, N32G) heavy: not shown light: QSVLTQPPSVSAAPGQKVTISCSGSSSNVGNGYVSWYQQLPGTAPKLLIYDNNKRPSGIPDRFSGSKSGTSATLGITGLQTGDEADYYCASAEDSSSNAVFGSGTTLTVLGQPKAAPSVTLFPPSSEELQANKATLVCLISDFYPGAVTVAWKADSSPVKAGVETTTPSKQSNNKYAASSYLSLTPEQWKSHRSYSCQVTHEGSTVEKTVAPTECS | 8.9
IgG with VH4-34+CDR3-IL8_CDR1 Cow and light chain V1-51 CDR2 DNNKRP to GDTSRA (antibody, IgG, human IgG1 CH1-CH2-CH3; normalized to 10 nM; Only 'DNN (amino acids 51-53)' is printed; positions 54 and 56 are counted on from it) heavy: not shown light: QSVLTQPPSVSAAPGQKVTISCSGSSSNIGNNYVSWYQQLPGTAPKLLIYGDTSRASGIPDRFSGSKSGTSATLGITGLQTGDEADYYCASAEDSSSNAVFGSGTTLTVLGQPKAAPSVTLFPPSSEELQANKATLVCLISDFYPGAVTVAWKADSSPVKAGVETTTPSKQSNNKYAASSYLSLTPEQWKSHRSYSCQVTHEGSTVEKTVAPTECS | 8
IgG with VH4-34+CDR3-IL8_CDR1 Cow CDR2 Cow and light chain V1-51 CDR2 DNNKRP to GDTSRA (antibody, IgG, human IgG1 CH1-CH2-CH3; normalized to 10 nM) heavy: not shown light: QSVLTQPPSVSAAPGQKVTISCSGSSSNIGNNYVSWYQQLPGTAPKLLIYGDTSRASGIPDRFSGSKSGTSATLGITGLQTGDEADYYCASAEDSSSNAVFGSGTTLTVLGQPKAAPSVTLFPPSSEELQANKATLVCLISDFYPGAVTVAWKADSSPVKAGVETTTPSKQSNNKYAASSYLSLTPEQWKSHRSYSCQVTHEGSTVEKTVAPTECS | 6.9
